From patent publication US20190161555A1 (ALLIGATOR BIOSCIENCE, published 2019)

T1: human OX40 overexpressed on CHO cells (human, UniProt P43489 29-214; P25942 194-277)
T1 construct: extracellular domain;domain: transmembrane and intracellular part; also called hOX40; huOX40 (CHO)
T1 sequence (looked up): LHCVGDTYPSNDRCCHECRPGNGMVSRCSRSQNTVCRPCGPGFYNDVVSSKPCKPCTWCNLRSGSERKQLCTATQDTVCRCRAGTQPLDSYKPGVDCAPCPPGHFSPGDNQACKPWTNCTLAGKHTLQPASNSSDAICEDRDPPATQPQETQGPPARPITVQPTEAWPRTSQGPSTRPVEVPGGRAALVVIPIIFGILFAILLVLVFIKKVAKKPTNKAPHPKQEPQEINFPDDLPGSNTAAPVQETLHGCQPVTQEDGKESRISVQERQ

T2: Human OX40 (R&D Systems, 3388-OX) (human, UniProt P43489 29-216)
T2 construct: bought; also called OX40-Fc; Human OX40 (R&D systems, #3358_OX)
T2 sequence (looked up): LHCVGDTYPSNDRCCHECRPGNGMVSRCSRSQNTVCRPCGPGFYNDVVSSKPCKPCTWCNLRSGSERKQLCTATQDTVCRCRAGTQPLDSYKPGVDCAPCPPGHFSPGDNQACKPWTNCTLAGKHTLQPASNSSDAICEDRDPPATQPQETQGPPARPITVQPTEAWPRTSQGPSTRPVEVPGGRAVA

T3: murine OX40 (murine, UniProt P47741 20-211, limits assumed)
T3 construct: also called mouse OX40
T3 sequence (looked up): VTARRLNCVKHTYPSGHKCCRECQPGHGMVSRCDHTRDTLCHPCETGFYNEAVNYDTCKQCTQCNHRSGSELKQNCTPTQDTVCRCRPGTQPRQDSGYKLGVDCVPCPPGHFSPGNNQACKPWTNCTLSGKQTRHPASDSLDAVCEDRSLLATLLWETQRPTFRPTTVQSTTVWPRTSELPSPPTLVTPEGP

T4: Construct 84: full length OX40 (human, UniProt P43489 29-277)
T4 construct: whole, on cells
T4 sequence (looked up): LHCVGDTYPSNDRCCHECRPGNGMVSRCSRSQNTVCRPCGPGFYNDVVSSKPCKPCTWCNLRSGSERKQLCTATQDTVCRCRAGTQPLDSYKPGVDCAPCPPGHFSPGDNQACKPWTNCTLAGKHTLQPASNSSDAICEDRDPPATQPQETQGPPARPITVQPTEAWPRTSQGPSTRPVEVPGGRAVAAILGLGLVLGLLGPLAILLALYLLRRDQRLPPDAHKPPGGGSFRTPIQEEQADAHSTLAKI

T5: 5T4-Fc (human, UniProt Q13641 32-355, limits assumed)
T5 construct: obtained from Peter L. Stern, University of Manchester; also called h5T4-Fc; recombinant 5T4
T5 sequence (looked up): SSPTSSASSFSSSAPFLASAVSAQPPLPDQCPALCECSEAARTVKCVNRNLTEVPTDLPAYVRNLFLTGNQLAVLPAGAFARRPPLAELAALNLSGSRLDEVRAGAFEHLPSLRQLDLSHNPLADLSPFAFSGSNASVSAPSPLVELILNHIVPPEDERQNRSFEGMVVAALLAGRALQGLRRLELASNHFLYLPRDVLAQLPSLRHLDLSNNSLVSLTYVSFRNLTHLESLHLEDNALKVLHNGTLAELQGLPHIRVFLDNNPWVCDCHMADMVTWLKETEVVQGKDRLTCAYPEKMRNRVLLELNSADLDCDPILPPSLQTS


Assays:
[1] = molecular target: T1, human OX40 overexpressed on CHO cells; test: flow cytometry on CHO cells overexpressing human OX40, anti-huIgG-PE detection, MFI
Experimental: The extracellular part of human OX40 was fused to the transmembrane and intracellular part of hCD40 and cloned into pcDNA3.0. The vector was subsequently stably transfected into CHO cells. […] For the assay, the transfected cells were incubated with the test antibodies and controls for 30 min at 4° C. and then detected with a-huIgG-PE (Jackson Immunoresearch) 30 min 4° C. Cells were analyzed by flow cytometry with FACS Verse (BD Biosciences).

CD137 (R&D Systems) = CD137 (R&D Systems) (UniProt Q07011 24-186, limits assumed); test: ELISA, CD137 coated
CD137 (R&D Systems), sequence (Q07011 24-186 limits assumed): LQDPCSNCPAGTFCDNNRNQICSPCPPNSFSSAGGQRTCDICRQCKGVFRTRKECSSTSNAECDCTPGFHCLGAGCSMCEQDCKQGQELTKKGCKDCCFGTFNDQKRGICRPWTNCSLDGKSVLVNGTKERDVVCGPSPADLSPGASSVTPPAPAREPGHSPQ
Experimental: (§1) ELISA plates were coated with human OX40 (R&D Systems, 3388-OX), CD40 (Ancell), or CD137 (R&D Systems) at 0.1 or 0.5 μg/ml. The ELISA plates were washed with PBST and then blocked with PBST+2% BSA for 1 h at room temperature and then washed again with PBST. The antibodies were added in dilution series to the ELISA plates for 1 h at room temperature and then washed with PBST. Binding was detected using goat anti human kappa light chain HRP, incubated for 1 h at room temperature. SuperSignal Pico Luminescent was used as substrate and luminescence was measured using Fluostar Optima.

CD40 (Ancell) = CD40 (Ancell) (UniProt P25942 21-193, limits assumed); test: ELISA, CD40 coated
CD40 (Ancell), sequence (P25942 21-193 limits assumed): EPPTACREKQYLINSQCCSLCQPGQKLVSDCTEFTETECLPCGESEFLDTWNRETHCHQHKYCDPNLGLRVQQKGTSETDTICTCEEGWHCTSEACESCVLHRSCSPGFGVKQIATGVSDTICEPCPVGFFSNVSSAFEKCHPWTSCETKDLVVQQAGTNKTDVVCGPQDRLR
Experimental: as §1

[2] = molecular target: T2, Human OX40 (R&D Systems, 3388-OX); test: ELISA, plates coated with human OX40, IgG
Experimental: as §1

murine OX40 = molecular target: T3, murine OX40; test: ELISA
[3] = molecular target: T2, Human OX40 (R&D Systems, 3388-OX); test: SPR Biacore, human OX40 amine-coupled on CM5, antibody injected, 1:1 Langmuir
Experimental: Human OX40 (R&D systems, #3358_OX) was immobilized to the Biacore™ sensor chip, CM5, using conventional amine coupling. The tested antibodies and controls (serially diluted 1/3 or 1/2 100-2 nM) were analyzed for binding in HBS-P (GE, #BR-1003-68) at a flow rate of […]. The association was followed for 3 minutes and the dissociation for 20 minutes. Regeneration was performed twice using 50 mM NaOH for 60 seconds. The kinetic parameters and the affinity constants were calculated using 1:1 Langmuir model with drifting baseline. […] The kinetic parameters and the affinity constants were calculated using BIAevaluation 4.1 software.

[4] = molecular target: T4, Construct 84: full length OX40; test: flow cytometry, 293-F cells transfected with the construct
Experimental: The transfected cells were incubated with human OX40 antibodies, human OX40L (hOX40L, RnD Systems), mouse OX40L (mOX40L, RnD Systems) and controls for 30 min 4° C. and then detected with a-huIgG-PE (Jackson Immunoresearch) 30 min 4° C. Cells were analyzed with FACS Verse (BD Biosciences). Binding to the different chimeric constructs were calculated as relative (mean fluorescence intensity) MFI compared to the binding of the isotype control.

5T4-Fc = molecular target: T5, 5T4-Fc; test: dual ELISA: OX40-Fc coated, detection with biotinylated 5T4-Fc and streptavidin-HRP, luminescence
Experimental: A dual ELISA was used to detect simultaneous binding of the two targets by the bispecific antibodies. ELISA plates were coated with OX40-Fc (R&D systems, #3388-OX, 0.5 μg/ml) over night at 4° C. followed by blocking with PBST+2% bovine serum albumin (BSA) for 1 h at room temperature (RT). […] Biotinylated 5T4-Fc (0.5 μg/ml), followed by HRP-labelled streptavidin (Pierce #21126) were used for detection. Super signal ELISA Pico Chemiluminescent Substrate (Thermo Scientific, #37069) was used as substrate and luminescence was measured using FLUOstar Optima.

[5] = molecular target: Macaca mulatta OX40 on HEK cells (Macaca mulatta; human); test: flow cytometry, macOX40-HEK cells; ends of the 95% confidence interval
Experimental: For the assay, the transfected cells were incubated with the test antibodies and controls for 30 min at 4° C. and then detected with a-huIgG-PE (Jackson Immunoresearch) 30 min 4° C. Cells were analyzed by flow cytometry with FACS Verse (BD Biosciences).

EC50 (read off the curve) [1] | binding result (CD137 (R&D Systems)) | binding result (CD40 (Ancell)) | EC50 [2] | binding result (murine OX40) | Kd [3] | koff [3] | kon [3] | relative MFI [4] | EC50 [5] | Binder | binding result (5T4-Fc)
~0.01 µg/mL | no binding | no binding | < 1 nM | no binding | 0.308 nM | 7.73e-05 s⁻¹ | 251000 M⁻¹ s⁻¹ | 27.5 fold over isotype control | – | 1164/1135 (antibody, V domains shown, OX40 antibody, tested as IgG) VH: EVQLLESGGGLVQPGGSLRLSCAASGFTFYGSSMYWVRQAPGKGLEWVSGIYSSGGYTSYADSVKGRFTISRDNSKNTLYLQMNSLRAEDTAVYYCARGVPHGYFDYWGQGTLVTVSS VL: not shown | –
~0.05 µg/mL | no binding | no binding | < 1 nM | no binding | 0.811 nM | 0.00139 s⁻¹ | 1.71e+06 M⁻¹ s⁻¹ | 31.4 fold over isotype control | – | 1524/1525 (antibody, V domains shown, OX40 antibody, tested as IgG) VH: EVQLLESGGGLVQPGGSLRLSCAASGFTFGSYYMGWVRQAPGKGLEWVSSIGSYYGYTYYADSVKGRFTISRDNSKNTLYLQMNSLRAEDTAVYYCARHDYGALDYWGQGTLVTVSS VL: DIQMTQSPSSLSASVGDRVTITCRASQSISSYLNWYQQKPGKAPKLLIYAASSLQSGVPSRFSGSGSGTDFTLTISSLQPEDFATYYCQQYGPSGLFTFGQGTKLEIK | –
– | no binding | no binding | – | no binding | – | – | – | – | 0.16 to 0.242 µg/mL | 1166/1167 (antibody, V domains shown) VH: EVQLLESGGGLVQPGGSLRLSCAASGFTFGGYYMSWVRQAPGKGLEWVSAISGSGGSTYYADSVKGRFTISRDNSKNTLYLQMNSLRAEDTAVYYCARYDYASMDYWGQGTLVTVSS VL: DIQMTQSPSSLSASVGDRVTITCRASQSISSYLNWYQQKPGKAPKLLIYAASSLQSGVPSRFSGSGSGTDFTLTISSLQPEDFATYYCQQYYWYGLSTFGQGTKLEIK | no binding (tested: about 80 nM (log[conc ab] 1.9))
